How the values were obtained:
[1] = test system: F1*subA RNA substrate (template-directed ligation); experiment: fraction ligated after 30 min (ligated reads / total reads); higher = more ligase activity; sequences stand for … in GAGACCGCAACTGAAAAGTTGT…TTTCTGCACGTAGAAGCAAAAGGC; conditions: 42 °C, parent ribozyme: minF1
Protocol: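 Chip-synthesised pool of minF1 ligase ribozyme variants (single and double substitutions, single to quadruple deletions, bulge and P2 designed variants) was transcribed with T7 and reacted as a pool with excess substrate F1*subA for 30 min at 42 C in 50 mM EPPS pH 8.5, 25 mM MgCl2. Ligated and unligated RNAs were separated by PAGE, barcoded by RT and deep sequenced; fraction ligated = ligated reads / total reads, relative activity = FL / FL of wild-type minF1 (0.76); sequencing FL correlated with PAGE (R2 = 0.98). Sequences are the DNA template of the ribozyme.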

[2] = test system: F1*sub RNA substrate (template-directed ligation); experiment: fraction ligated after 30 min (ligated reads / total reads); higher = more ligase activity; conditions: 42 °C
Protocol: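 Chip-synthesised pool of F1* ligase ribozyme variants (all single and double substitutions, single, double and triple deletions in the catalytic core and GAA bulge, plus designed variants) was transcribed with T7 and reacted as a pool with excess substrate F1*sub for 30 min at 42 C in 50 mM EPPS pH 8.5, 25 mM MgCl2. Ligated and unligated bands were separated by PAGE, barcoded by RT and deep sequenced; fraction ligated = ligated reads / total reads per variant, relative activity = FL / FL of wild type (0.826). Sequences are the DNA template of the ribozyme.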

Sequence: TATCAGAAAGGATGGTTG [4d1069]
- fraction ligated [1]: 0.000981

Sequence: TATCAGAAATGGATGGGTT [s45 (=3d379)]
- fraction ligated [1]: 0.00181

Sequence: TATCAGAAATGGTGGGTTG [3d372]
- fraction ligated [1]: 0.000922

Sequence: TATCAGAAATGATGGTTG [4d1092]
- fraction ligated [1]: 0.00043

Sequence: TATCAGAAATGGATGGTTG [3d378]
- fraction ligated [1]: 0.00121

Sequence: TATCAGAATGGATGGTTG [4d1041]
- fraction ligated [1]: 0.00128

Sequence: TATCAGAAATGGATGGGTT [3d379]
- fraction ligated [1]: 0.00181

Sequence: TATCAGAAATGATGGGTT [4d1093]
- fraction ligated [1]: 0

Sequence: TATCAGAAATGGAGGGTTG [3d376]
- fraction ligated [1]: 0.00056

Sequence: TATCAGAAATGATGGGTTG [3d366]
- fraction ligated [1]: 0.000941

Sequence: TATCAGAATGGATGGGTT [4d1042]
- fraction ligated [1]: 0.00126

Sequence: TATCAGAAATGGATGGTTA [3d377]
- fraction ligated [1]: 0.00122

Sequence: GAGACCGCAACTGAAAAGTTGTTATACTTGTCGTAAGACACTTTGGATGGGTTGGTTCTGCACGTAGAAGCAAAAGGC [3d948]
- fraction ligated [2]: 0

Sequence: TATCAGAAAGGATGGGTT [4d1070]
- fraction ligated [1]: 0.00116

Sequence: GAGACCGCAACTGAAAAGTTGTTATCACTTGTCGTAAGACACTTTGGATGGTTGGTTCTGCACGTAGAAGCAAAAGGC [3d2282]
- fraction ligated [2]: 0.0129

Sequence: GAGACCGCAACTGAAAAGTTGTTATCACTTGTCGAAGACACTTTGGATGGGTTGGTTCTGCACGTAGAAGCAAAAGGC [3d1980]
- fraction ligated [2]: 0.102

Sequence: GAGACCGCAACTGAAAAGTTGTTATCACTTGTCGTAAGACATTTGGATGGGTTGGTTCTGCACGTAGAAGCAAAAGGC [3d2230]
- fraction ligated [2]: 0.00375

Sequence: GAGACCGCAACTGAAAAGTTGTTATCACTTGTCGTAAGACACTTTGGATGGGTTGGTTCTGCACGTAGAAGCAAAAGGC [2d299]
- fraction ligated [2]: 0.02

Sequence: GAGACCGCAACTGAAAAGTTGTTATCACTTGTCGTAAGAACTTTGGATGGGTTGGTTCTGCACGTAGAAGCAAAAGGC [3d2182]
- fraction ligated [2]: 0.0451

Sequence: ATCAGAAATGGATGGTTG [4d309]
- fraction ligated [1]: 0.000441

Sequence: GAGACCGCAACTGAAAAGTTGTTATCACTTGTCGTAAGACACTTTGGAGGGTTGGTTCTGCACGTAGAAGCAAAAGGC [3d2280]
- fraction ligated [2]: 0.0051

Sequence: GAGACCGCAACTGAAAAGTTGTTATCACTTGTCGTAAGACCTTTGGATGGGTTGGTTCTGCACGTAGAAGCAAAAGGC [3d2206]
- fraction ligated [2]: 0.0611

Sequence: GAGACCGCAACTGAAAAGTTGTATCACTTGTCGTAAGACACTTTGGATGGGTTGGTTCTGCACGTAGAAGCAAAAGGC [3d276]
- fraction ligated [2]: 0.00404

Sequence: GAGACCGCAACTGAAAAGTTGTTATCACTTGTCGTAGACACTTTGGATGGGTTGGTTCTGCACGTAGAAGCAAAAGGC [3d2058]
- fraction ligated [2]: 0.0726

Sequence: GAGACCGCAACTGAAAAGTTGTTATCACTTGTCGTAAGACACTTTGGATGGGTTGTTCTGCACGTAGAAGCAAAAGGC [3d2283]
- fraction ligated [2]: 0.021

Sequence: ATCAGAAATGGATGGGTT [4d310]
- fraction ligated [1]: 0.0014

Sequence: GAGACCGCAACTGAAAAGTTGTTATCACTTGTCGTAAGCACTTTGGATGGGTTGGTTCTGCACGTAGAAGCAAAAGGC [3d2151]
- fraction ligated [2]: 0.116

Sequence: GAGACCGCAACTGAAAAGTTGTTATCACTTTCGTAAGACACTTTGGATGGGTTGGTTCTGCACGTAGAAGCAAAAGGC [3d1584]
- fraction ligated [2]: 0.0193

From the supplement of paper PMC6755084
